Values belong to the substance of their own block, whether it stands above or below them.
How the values were obtained:
[1] = target: Alexa 488-labelled, crosslinked recombinant histone octamer (H2A, H2B T112C-Alexa 488, H3 C110A, H4 T71C) (UniProt P06897); test: other fluorescence titration; 5 nM Alexa 488-labelled octamer titrated with NP (pentamer concentration); 150 mM NaCl, 1 mM DTT, 0.1 mg/ml BSA, 20 mM Tris-HCl pH 7.5; ligand-depleted model with two pentamers per octamer; apparent
[2] = target: Crosslinked histone octamer (dimethyl suberimidate) (not stated (chicken erythrocyte or recombinant histones)); test: native gel or EMSA; 8% native PAGE run from the positive to the negative electrode; fixed histones (10 µM H2A-H2B or H3-H4 dimers, 2.5 µM octamer) with increasing tail domain, 150 mM NaCl, 20 mM Tris-HCl pH 7.6, RT, 1 h
[3] = target: Histone H2A-H2B dimer, natural source (chicken erythrocyte chromatin) (chicken) (UniProt P02263); test: as above
[4] = target: Recombinant nucleoplasmin, full length (rNP) (X. laevis) (UniProt P05221); test: native gel or EMSA; NP alone on 4-16% native PAGE (Figs 2B and S3); pentamers to decamer

Kd [1]: 0.04 nM
Substance: Egg nucleoplasmin (eNP) from X. laevis, natural hyperphosphorylated pentamer (from UniProt P05221 1-200) (natural protein)

stoichiometry N (C-terminal tails per crosslinked octamer) [2]: 4
stoichiometry N (tail domain/H2A-H2B dimer) [3]: 1
Substance: Phosphomimetic C-terminal tail domain of nucleoplasmin (rNP113–200-4D) (from UniProt P05221 113-200) (domain or fragment)

Kd [1]: 0.27 nM
Substance: Recombinant nucleoplasmin lacking the last 50 residues (rNPΔ150–200) (from UniProt P05221 1-149) (domain or fragment)

stoichiometry N [4]: 10
Substance: Recombinant nucleoplasmin, full length (rNP) (from UniProt P05221 1-200) (natural protein)
